According to patent US20020115613A1, “Treatment of prostate cancer” (priority 2001, published 2002):

Columns and labels:
[1] = tested on: LNCaP cells; settings: cited from earlier work
[2] = tested on: prostate cancer cells; settings: cited from earlier work
[3] = tested on: PC3AR cells; assay: Western blotting of death receptors, caspases, Bid, NFκB, XIAP; type: cell-based
Experimental: (§1) Prostate cancer cell lines, PC3Neo and PC3AR were provided by Dr. K. Burnstein, University of Miami School of Medicine, Miami, Fla. PC3AR cells are a clonal cell line derived by stable transfection of PC3 with a full-length human AR cDNA (Dai, J. L., et al., Steroids, 61, 531-539, 1996). PC3Neo cells were stably transfected with neomycin vector alone. Cells were grown in RPMI 1640 with 5% FBS (Hyclone, Logan, Utah), 100 units/ml penicillin, 100 μg/ml streptomycin, 0.25 μg/ml fungizone and G418 (350 μg/ml) to select for neomycin-resistant cells. In experiments using antiandrogens, cells were maintained in 5% DCC stripped serum for at least 48 hr before treatment with hydroxyflutamide (Sigma Chemical Co., St. Louis, Mo.). The medium and all the drugs were replaced every two days. Cells were treated with 200 ng/ml, 400 ng/ml or 600 ng/ml of TRAIL (Biomol Research Laboratories, Inc, Plymouth Meeting, Pa.) for 2, 4, 6, 8, 16 and 20 hr. Cells were treated with 5 μM hydroxyflutamide for 5 days before the commencement of treatment with 400 ng/ml TRAIL.
(§2) Cells were harvested by trypsinization, washed in 1×PBS and cell pellets resuspended in lysis buffer (100 mM Tris-HCl pH 8.0, 0.1% Triton X 100 and protease inhibitor cocktail from Roche Diagnostic Corporation, Indianapolis, Ind.). Cells were incubated over ice for 30 min and centrifuged at 10,000 g at 4° C. for 10 min. The supernatant was collected and the protein concentration estimated using Bio-Rad protein reagent (Bio-Rad Laboratories, Hercules, Calif.).
(§3) Proteins (50 μg, unless stated otherwise) were separated on NuPAGE 10% Bis-Tris gels (Novex pre-cast mini gels, InVitrogen, Carlsbad, Calif.) at 100 volts for 1 hour in the presence of 1×MES-SDS running buffer (InVitrogen, Carlsbad, Calif.). Separated proteins were transferred to (PVDF) membranes (Bio-Rad Laboratories, Hercules, Calif.) at 42 volts for 2.5 hr using a Novex XCell II blotting apparatus in MES transfer buffer in the presence of NuPAGE antioxidant. Transfer of the proteins to the polyvinylidene difluoride (PVDF) membrane was confirmed by staining with Ponceau S (Sigma, St. Louis, Mo.). The blots were blocked in 5% non-fat dry milk in TBS, washed twice for 10 min each with TBS containing 0.1% Tween-20 and incubated for 2 hr at RT with primary antibody diluted in TBS containing 0.5% milk.
(§4) The following antibodies were used in the immunoblots: DR4, DR5 and cytochrome c (Imgenex, San Diego, Calif.), BID (BioSource International, Camarillo, Calif.), caspases-8, -9, and Akt (Cell Signaling Technology, Beverely, Mass.), caspase-3 (BD Pharmingen, San Diego, Calif.) Iκβ and XIAP (Cell Signaling Technology, Beverly, Mass.), cFLIP (StressGen Biotechnology Corp, Victoria, Canada), actin (Sigma Chemical Co., St. Louis, Mo.) and Cox II (Molecular Probes, Eugene, Oreg.). Immunoreactive bands were visualized using ECL detection system (Amersham, Pharmacia Biotech, Arlington Heights, Ill.) and signals were developed after exposure to X-ray film (X-Omat films, Eastman Kodak Company, Rochester, N.Y.).
(§5) For separation of mitochondrial and cytosolic fractions, cells were trypsinized, centrifuged at 600 g for 10 min at 4° C., washed twice in ice-cold PBS and re-suspended in buffer A (20 mM HEPES-KOH, pH 7.2, 10 mM KCl, 1.5 mM MgC12, 1 mM sodium-EDTA, 1 mM sodium-EGTA, 250 mM sucrose and protease inhibitor cocktail). Cells were homogenized on ice with a glass Dounce homogenizer (30 strokes) and were centrifuged at 750 g for 5 min at 4° C. The supernatant was centrifuged for 15 min at 10,000 g at 4° C. to pellet mitochondria, which was washed and resuspended in lysis buffer. The supernatant was centrifuged at 100,000 g for 60 min at 4° C. and S-100 cytosol was collected. […]

[4] = tested on: PC3Neo cells; assay: as above; type: cell-based
Experimental: as §1, §2, §3, §4, §5

[5] = 400 ng/ml TRAIL, by 2 hr, FIG. 2C

CC#C[C@]1(O)CC[C@H]2[C@@H]3CCC4=CC(=O)CCC4=C3[C@@H](c3ccc(N(C)C)cc3)C[C@@]21C [Mifepristone]
induction of tBid (Sridhar et al., 2001) [1]: weakly induced
ability to induce apoptosis in prostate cancer cells (Sridhar et al., 2001) [2]: marginal ability to induce apoptosis

B1: Tumor necrosis factor α—Related Apoptosis Inducing Ligand (protein, UniProt P50591 1-281, looked up)
Tumor necrosis factor ligand …: MAMMEVQGGPSLGQTCVLIVIFTVLLQSLCVAVTYVYFTNELKQMQDKYSKSGIACFLKEDDSYWDPNDEESMNSPCWQVKWQLRQLVRKMILRTSEETISTVQEKQQNISPLVRERGPQRVAAHITGTRGRSNTLSSPNSKNEKALGRKINSWESSRSGHSFLSNLHLRNGELVIHEKGFYYIYSQTYFRFQEEIKENTKNDKQMVQYIYKYTSYPDPILLMKSARNSCWSKDAEYGLYSIYQGGIFELKENDRIFVSVTNEHLIDMDHEASFFGAFLVG
notes: 281 amino acid type II transmembrane protein of the tumor necrosis factor α family; purchased from Biomol
increase in expression of DR5 [3, 5]: ~5 fold
increase in expression of DR5 (peak) ([3]; 400 ng/ml TRAIL, by 16 hr, FIG. 2C): ~8 fold
DcR2 expression ([3]; TRAIL treatment): did not significantly alter DcR2 expression
DR4 levels ([3]; TRAIL-treated): increased
cleaved caspase-9 ([3]; by 4 hr, lasted until 16 hr): significant levels of cleaved caspase-9 were detected
tBid in mitochondria ([3]; mitochondrial fraction, not shown): translocated into mitochondria within 2 hours
XIAP levels ([3]; not shown): did not alter XIAP levels significantly
cleaved caspase-3 (p17) ([3]; not shown): present in both cell lines as early as 2 hr
expression of NFκB ([3]; not shown): increased the expression of NFκB levels
mature p12 caspase-3 product ([3]; not shown): noted only in PC3AR
tBid expression ([3]; not shown): detected up to 8 hr of treatment
cleavage of procaspase-8 ([3]; within 2 hr, not shown): induced cleavage of procaspase-8
activated caspase-9 [4]: not detected
increase in expression of DR5 [4, 5]: ~2 fold
DcR2 expression ([4]; TRAIL treatment): did not significantly alter DcR2 expression
DR4 levels ([4]; TRAIL-treated): did not show significant changes
tBid expression ([4]; by 4 hr of TRAIL treatment, not shown): little tBid was present
tBid in mitochondria ([4]; mitochondrial fraction, highest level by 2 hr, not shown): significantly lower than that seen in PC3AR cells
XIAP levels ([4]; not shown): did not alter XIAP levels significantly
cleaved caspase-3 (p17) ([4]; not shown): present in both cell lines as early as 2 hr
expression of NFκB ([4]; not shown): increased the expression of NFκB levels
mature p12 caspase-3 product ([4]; not shown): noted only in PC3AR
cleavage of procaspase-8 ([4]; within 2 hr, not shown): induced cleavage of procaspase-8
